Experimental data taken from publication PMC3785249.

What was measured:
[1] = target: S267E/L328F variant of human IgG1 (human); test: SPR; Biacore; antibody variants captured on a CM5 chip with immobilised antigen peptide or protein A/G, FcγR injected; kinetic analysis by global fitting with a 1:1 Langmuir model (KD)
[2] = target: wild-type human IgG1 (human); test: SPR; KD for soluble hFcRn at pH 6.0; as described previously (Igawa et al., 2010)
[3] = target: V12 variant of human IgG1 (human); test: as above
[4] = target: human FcγRIIa^H131, extracellular region (UniProt P12318); test: binding screen of single-substitution variants (method not named in legend); settings: read off a plot
Sequence of UniProt P12318 (P12318 34-217): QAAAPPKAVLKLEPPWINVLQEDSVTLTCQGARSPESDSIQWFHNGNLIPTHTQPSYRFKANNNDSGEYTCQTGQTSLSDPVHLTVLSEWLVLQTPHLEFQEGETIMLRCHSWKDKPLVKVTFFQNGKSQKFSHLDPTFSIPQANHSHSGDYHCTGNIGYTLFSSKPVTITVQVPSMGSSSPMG

[5] = target: human FcγRIIb, extracellular region (UniProt P31994); test: as above; settings: read off a plot
Sequence of UniProt P31994 (P31994 43-217): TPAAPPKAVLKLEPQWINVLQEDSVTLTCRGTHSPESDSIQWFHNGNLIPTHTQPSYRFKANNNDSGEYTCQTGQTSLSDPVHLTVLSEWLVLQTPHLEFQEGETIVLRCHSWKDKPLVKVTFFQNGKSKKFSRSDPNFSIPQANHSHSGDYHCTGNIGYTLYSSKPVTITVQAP

[6] = target: human FcγRIIa^R131, extracellular region; test: as above; settings: read off a plot

Substance	fold increase in affinity over IgG1, KD (IgG1)/KD (Fc variant) [1] [fold]	Kd [2] [nM]	Kd [3] [nM]	percent of parent (template antibody = 100) [4]	percent of parent (template antibody = 100) [5]	percent of parent (template antibody = 100) [6]
human FcγRIIa^R131, extracellular region (receptor)	864	–	–	–	–	–
recombinant, soluble human FcRn (from UniProt P55899 24-297) (complex)	–	1500	1400	–	–	–
wild-type human IgG1 L328E	–	–	–	15	180	–
wild-type human IgG1 L328F	–	–	–	53	300	190
wild-type human IgG1 P238D	–	–	–	2	210	12
wild-type human IgG1 S267E	–	–	–	100	410	190
